The results in this text go back to publication PMC8280646.

Where two headings read alike, the source gives them in different places.

For the experiment, the target named is His-tagged hACE2 protein (human) (UniProt Q9BYF1). The experiment can be described thus: SPR.
Chain of His-tagged hACE2 protein (human) (Q9BYF1 18-740): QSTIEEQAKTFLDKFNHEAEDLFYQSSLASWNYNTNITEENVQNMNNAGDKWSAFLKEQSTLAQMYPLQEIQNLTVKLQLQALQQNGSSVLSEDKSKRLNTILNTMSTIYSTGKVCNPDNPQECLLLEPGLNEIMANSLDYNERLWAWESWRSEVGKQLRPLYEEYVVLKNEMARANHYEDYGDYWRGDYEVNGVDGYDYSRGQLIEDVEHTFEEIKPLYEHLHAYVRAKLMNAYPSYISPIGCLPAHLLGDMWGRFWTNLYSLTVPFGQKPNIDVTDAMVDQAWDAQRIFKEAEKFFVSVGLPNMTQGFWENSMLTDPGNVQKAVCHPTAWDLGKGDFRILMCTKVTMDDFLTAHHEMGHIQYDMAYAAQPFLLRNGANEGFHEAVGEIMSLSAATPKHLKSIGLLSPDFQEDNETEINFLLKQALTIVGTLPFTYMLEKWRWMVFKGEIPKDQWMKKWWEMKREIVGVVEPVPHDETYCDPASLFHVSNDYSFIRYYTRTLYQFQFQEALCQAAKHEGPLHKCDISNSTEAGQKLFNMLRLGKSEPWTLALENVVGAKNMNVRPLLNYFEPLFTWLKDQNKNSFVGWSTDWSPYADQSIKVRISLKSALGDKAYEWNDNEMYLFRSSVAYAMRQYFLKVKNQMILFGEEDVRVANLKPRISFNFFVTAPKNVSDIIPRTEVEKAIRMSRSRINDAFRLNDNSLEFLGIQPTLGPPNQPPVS

Take Human IFNα-RBD-Fc: the Kd (as a rule, the concentration at which binding is half-saturated) turned out to be 12.3 nM. With RBD-Fc, the Kd turned out to be 11.5 nM. In turn, RBD gave a Kd of 7.98 nM. Under “Fc fusion”, “mouse IFNα-Pan-RBD-Fc fusion protein (I-P-R-F) (from UniProt P0DTC2 319-541)” gave a Kd of 11 nM.
